# Measured values as given in patent US20260116991A1 (HAINAN SIMCERE ZAIMING PHARMACEUTICAL, published 2026).
# Residue numbers refer to the chain shown, from its start.
# B1: F1.9.19 (antibody, human IgG1, kappa, V domains shown)
# VH: DVQLQESGPGLVKPSQSLSLTCSVTGYSITSGYYWNWIRQFPGNRLEWMAYISYDGINNYNPSLKNRISIARDTSTNQFFLKLNSVTSEDTATYYCATTTEVALFDHWGQGTTLTVSS
# VL: DVLLTQTPLSLPVSLGDQASISCRSSQNIVHGNGNTYLEWFLQKPGQSPKLLIYKVSNRFSGVPDRFSGSGSGTDFTLKISRVEAEDLGLYYCFQASHVPWTFGGGTKLEIKR
# notes: Human-murine chimeric antibody
# B2: GC33 IgG (antibody, V domains shown)
# VH: QVQLVQSGAEVKKPGASVKVSCKASGYTFTDYEMHWVRQAPGQGLEWMGALDPKTGDTAYSQKFKGRVTLTADKSTSTAYMELSSLTSEDTAVYYCTRFYSYTYWGQGTLVTVSS
# VL: DVVMTQSPLSLPVTPGEPASISCRSSQSLVHSNRNTYLHWYLQKPGQSPQLLIYKVSNRFSGVPDRFSGSGSGTDFTLKISRVEAEDVGVYYCSQNTHVPPTFGQGTKLEIKR
# notes: Control antibody expressed as complete IgG; also called codrituzumab
# B3: F1.42.8 (antibody, human IgG1, kappa, V domains shown)
# VH: HVQLQQPGAELVKPGASVKLSCKASGYTFTSYWMHWVRQRPGQGLEWIEMIHPNSGSTNYNEKFKSKATLTVDKSSSTAYMQLSSLTSEDSAVYYCARGNYNSSLYAMDYWGQGTSVTVSS
# VL: DIQMTQTTSSLSASLGDRVTISCSASQGISNYLNWYQQKPDGTVKLLIYYASNLHSGVPSRFSGSGSGTAYSLTISNLEPEDIATYYCQQYSILPYTFGGGTKLEIKR
# notes: as for B1
# B4: F1.153.1 (antibody, human IgG1, kappa, V domains shown)
# VH: QIQLVQSGPELKKPGETVKISCKASGYTFTTAGMQWVQKMPGKGFKWIGWINTHSGEPQYAEDFKGRFAFSLETSASTAYLQISNLKNEDTATYFCARSFYYHGSSFFYFDYWGQGTTLTVSS
# VL: DIVMTQSQKFMSTTVGDRVSITCKASQNVGTAVAWYQQKPGQSPKLLIYSASNRYTGVPDRFTGSGSGADFTLTISNMQSEDLADYFCQQYSRYPLTFGAGTKLELKR
# notes: as for B1
# B5: F1.73.9 (antibody, human IgG1, kappa, V domains shown)
# VH: QVQLKQSGAELVRPGASVKLSCKASGYTFTDYYINWVKQRPGQGLEWIARIYPGSGNTYYNEKFKGKATLTAEKSSSTAYMQFSSLTSEDSAVYFCACSTYYTMDYWGQGTSVTVSS
# VL: QIVLTQSPAIMSASLGERVTMTCTASSGVSSSYLHWYQQKPGSSPKLWIYTTSNLASGVPARFSGSGSGTSYSLTISSMEAEDAATYYCHQYHRSPYTFGGGTKLEIKR
# notes: as for B1
# B6: F1.3.9 (antibody, human IgG1, kappa, V domains shown)
# VH: QVQLQQPGTELVKPGASVKLSCKASGYTFTSYWIHWVKQRPGQGLEWIGNINPPNAGTNYNEKFKSKATLTVDKSSSTAYMQLSSLTSEDSAVYYCARGRWLLHDYWGQGTTLTVSS
# VL: DIQMTQSPASLSISVGETVTITCRASENIYSNLAWYQQKQGKSPQLLVYGTKNLAEGVPSRFSGSGSGTQYSLKINSLQSEDFGNYYCQHFWGTPYTFGGGTKLEILR
# notes: as for B1
# B7: F1.62.9 (antibody, human IgG1, kappa, V domains shown)
# VH: QVQLQQSDAELVKPGASVKISCKVSGYIFTDHTIHWMKQRPEQGLEWIGYIYPRDGSIKYNENFKGKATLTADKSSSATYMQLNSLTSEDSAVYFCARPIYYDYAYYFDYWGQGTTLTVSS
# VL: DVVMTQSPLSLPVSLGDQASISCRSRQSLVHSNGNTYLHWYLQKPGQSPKVLIYKVSNRFSGVPDRFSGSGSGTDFTLKISRVEAEDLGVYFCSQSTHVPYTFGGGTKLEIKR
# notes: as for B1
# B8: F2.23.8 (antibody, human IgG1, kappa, V domains shown)
# VH: QVQLQQSGAELVRPGASVKLSCKASGYTFTDYEMHWVKQTPVHGLEWFGAIDPETGGTAYNQKFRAKATLTADKSSSTAYMELRSLTSEDSAVYYCTRFYSFAYWGQGTLVTVSA
# VL: B7 VL with S7T, R26S, H39Q, V51L, S81T, G105S
# notes: as for B1
# B9: F2.39.2 (antibody, human IgG1, kappa, V domains shown)
# VH: B8 VH with L20V, V37M, F48I, I51N, D52E, G57R, T58S, N61D, R65K, A66G
# VL: B7 VL with S7T, R26S, S28G, S32N, V51L, S96N, Y101P
# notes: as for B1
# B10: F2.92.1 (antibody, human IgG1, kappa, V domains shown)
# VH: B8 VH with T28I, T30S, M34I, W47C, F48I, I51V, R65K, A66G, Y95F, A115T
# VL: B7 VL with S7T, A19G, R26S, H39Q, V51L, S94C, P100L, Y101P
# notes: as for B1
# Experiments:
# [1] = target: T1, human GPC3-His protein (human, UniProt P51654 25-559); assay: SPR, antibody captured on Protein A chip, human GPC3-His analyte;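 also: measured at 25 °C flow cell, human GPC3-His injected at five concentrations up to 200 nM, 240 s association, up to 600 s dissociation, double-referenced, fitted to Langmuir 1:1 model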
# T1 construct: also called human GPC3 protein; not shown: His tag
# [2] = target: T2, monkey GPC3-His protein (monkey); assay: SPR, antibody captured on Protein A chip, monkey GPC3-His analyte;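 also: run at 25 °C with 240 s association and up to 600 s dissociation, double-referenced, kinetics fitted to a 1:1 Langmuir binding model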
# T2 construct: Bought recombinant protein; also called monkey GPC3 protein
# [3] = target: T2, monkey GPC3-His protein; assay: ELISA, monkey GPC3-His coated;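 also: Plate-coated antigen at 1 µg/mL, antibody binding 2 h at 37 °C, detected with HRP-labeled secondary antibody and TMB, absorbance at 450 nm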
# Experimental: The specific method is described as follows: The antigen protein was diluted with PBS to a final concentration of 1 μg/mL, and the diluent was added to a 96-well ELISA plate at 50 μL/well. The plate was sealed with a plastic film and incubated at 4° C. overnight, washed twice with PBS the next day, and a blocking solution [PBS+2% (w/w) BSA] was added for blocking at room temperature for 2 h. […] After incubation at 37° C. for 2 h, the plate was washed 3 times with PBS. A horseradish peroxidase (HRP)-labeled secondary antibody (purchased from Merck, Cat. No. AP113P) was added for incubation at 37° C. for 1 h, and the plate was washed 5 times with PBS. A TMB substrate was added at 50 μL/well for incubation at room temperature for 10 min, then a stop solution (1.0M HCl) was added at 50 μL/well. An ELISA plate reader (Multimode Plate Reader, EnSight, purchased from Perkin Elmer) was used to read OD_{450 nm} values, with results as shown in Table 4 to Table 6, FIG. 1A, FIG. 1B, and FIG. 1C.
# [4] = target: biotinylated labeled human GPC3 protein (produced in-house) (human, UniProt P51654 25-559, limits assumed, biotinylated (Dojindo, Cat. No. LK03); sites not stated); assay: ELISA, biotinylated human GPC3 protein
# [5] = target: T3, human GPC3 on CHO-K1-human GPC3 cells (CHOK1-hGPC3.2B5) (human, UniProt P51654 25-554); assay: FACS, CHOK1-hGPC3.2B5 cells;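 also: flow cytometry of humanized antibodies binding to the cells over one hour in the cold, read as cell mean fluorescence intensity, with EC50 obtained by curve fitting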
# T3 construct: whole, on cells
# Experimental: The desired cells were expanded to a logarithmic growth phase in a T-75 cell culture flask, the medium was removed by pipetting, and the cells were washed twice with a PBS buffer, and digested with trypsin. Then a complete medium was added to stop the digestion, and the cells were blown into a single cell suspension. After counting, the cells were centrifuged, and the cell pellet was resuspended with an FACS buffer (PBS+2% fetal bovine serum) to 2×10⁶ cells/mL. The cell resuspension solution was added to a 96-well FACS reaction plate at 50 μl/well, and a humanized antibody sample to be tested was added at 50 μl/well for incubation at 4° C. for 1 h. […] After the plate was centrifuged and washed 3 times with a PBS buffer, 100 μl of the resulting solution was assayed and analyzed by FACS (FACS Canto™, purchased from BD Biosciences). Data analysis was performed by software (FlowJo) to obtain the mean fluorescence intensity (MFI) of the cells. Then, analysis was performed by software (GraphPad Prism8), data were fitted, and EC₅₀ values were calculated.
# [6] = target: T4, monkey GPC3 on HEK293T-monkey GPC3 cells (monkey); assay: FACS on HEK293T-monkey GPC3 cells;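 also: flow cytometry binding of test antibodies to the cells, read as mean fluorescence intensity, with half-maximal concentration taken from fitted curves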
# T4 construct: whole, on cells
# Experimental: The desired cells were expanded to a logarithmic growth phase in a T-75 cell culture flask, the medium was removed by pipetting, and the cells were washed twice with a PBS buffer, and digested with trypsin. Then a complete medium was added to stop the digestion, and the cells were blown into a single cell suspension. After counting, the cells were centrifuged, and the cell pellet was resuspended with an FACS buffer (PBS+2% fetal bovine serum) to 2×10⁶ cells/mL. The cell resuspension solution was added to a 96-well FACS reaction plate at 50 μl/well, and a chimeric antibody sample to be tested was added at 50 μl/well for incubation at 4° C. for 1 h. […] After the plate was centrifuged and washed 3 times with a PBS buffer, 100 μl of the resulting solution was assayed and analyzed by FACS (FACS Canto™, purchased from BD Biosciences). Data analysis was performed by software (FlowJo) to obtain the mean fluorescence intensity (MFI) of the cells. Then, analysis was performed by software (GraphPad Prism8), data were fitted, and EC₅₀ values were calculated.
Kd [1] [nM],koff [1] [s⁻¹],kon [1] [M⁻¹ s⁻¹],Kd [2] [nM],koff [2] [s⁻¹],kon [2] [M⁻¹ s⁻¹],OD450 at 0.0001 nM [3] [OD450],OD450 at 0.001 nM [3] [OD450],OD450 at 0.01 nM [3] [OD450],OD450 at 0.1 nM [3] [OD450],OD450 at 1 nM [3] [OD450],OD450 at 10 nM [3] [OD450],OD450 at 100 nM [3] [OD450],further results,Binder
9.04,0.000314,34700,6.61,0.000317,48000,0.04,0.25,0.3,0.72,1.39,1.53,1.5,–,B1
–,–,–,–,–,–,–,–,–,–,–,–,–,OD450 at 0.0004 nM [4]: 0.054 OD450; OD450 at 0.002 nM [4]: 0.067 OD450; OD450 at 0.011 nM [4]: 0.127 OD450; OD450 at 0.056 nM [4]: 0.442 OD450; OD450 at 0.28 nM [4]: 0.993 OD450; OD450 at 1.39 nM [4]: 1.5 OD450; OD450 at 6.94 nM [4]: 1.36 OD450; OD450 at 34.72 nM [4]: 1.3 OD450; EC50 [5]: 2.19 nM; Max MFI [5]: 17000 MFI,B2
–,–,–,–,–,–,0.05,0.08,0.35,1.61,2.31,2.46,2.67,EC50 [6]: 0.27 nM; Max MFI [6]: 7620 MFI,B3
0.92,6.22e-05,67600,0.414,4.27e-05,103000,0.27,0.36,0.49,1.06,1.61,1.98,2,–,B4
–,–,–,–,–,–,0.05,0.06,0.18,0.73,1.14,1.27,1.47,EC50 [6]: 0.32 nM; Max MFI [6]: 5700 MFI,B5
2.54,7.28e-05,28700,1.24,4.74e-05,38200,0.04,0.05,0.16,0.56,1.52,1.7,1.82,–,B6
46,0.00129,28000,44,0.00156,35500,0.21,0.36,0.39,0.56,0.64,0.66,1.06,–,B7
20.4,0.00327,161000,13.5,0.0038,281000,0.27,0.28,0.58,1.8,2.22,2.24,2.25,–,B8
6.97,0.0021,302000,4.28,0.00219,512000,0.21,0.34,0.66,1.98,2.36,2.28,2.35,–,B9
0.6,0.000242,404000,0.353,0.000221,628000,0.23,0.27,0.65,1.9,2.3,2.24,2.34,–,B10
